B1: FAT10 wild type (His-3xFLAG-FAT10) [not stated] / NEDD8 ultimate buster-1 long (NUB1L) [not stated] (parent complex)
chain 1: MAPNASCLCVHVRSEEWDLMTFDANPYDSVKKIKEHVRSKTKVPVQDQVLLLGSKILKPRRSLSSYGIDKEKTIHLTLKVVKPSDEELPLFLVESGDEAKRHLLQVRRSSSVAQVKAMIETKTGIIPETQIVTCNGKRLEDGKMMADYGIRKGNLLFLACYCIGG
chain 2: MAQKKYLQAKLTQFLREDRIQLWKPPYTDENKKVGLALKDLAKQYSDRLECCENEVEKVIEEIRCKAIERGTGNDNYRTTGIATIEVFLPPRLKKDRKNLLETRLHITGRELRSKIAETFGLQENYIKIVINKKQLQLGKTLEEQGVAHNVKAMVLELKQSEEDARKNFQLEEEEQNEAKLKEKQIQRTKRGLEILAKRAAETVVDPEMTPYLDIANQTGRSIRIPPSERKALMLAMGYHEKGRAFLKRKEYGIALPCLLDADKYFCECCRELLDTVDNYAVLQLDIVWCYFRLEQLECLDDAEKKLNLAQKCFKNCYGENHQRLVHIKGNCGKEKVLFLRLYLLQGIRNYHSGNDVEAYEYLNKARQLFKELYIDPSKVDNLLQLGFTAQEARLGLRACDGNVDHAATHITNRREELAQIRKEEKEKKRRRLENIRFLKGMGYSTHAAQQVLHAASGNLDEALKILLSNPQMWWLNDSNPETDNRQESPSQENIDRLVYMGFDALVAEAALRVFRGNVQLAAQTLAHNGGSLPPELPLSPEDSLSPPATSPSDSAGTSSASTDEDMETEAVNEILEDIPEHEEDYLDSTLEDEEIIIAEYLSYVENRKSATKKN

Variants of: B1
Test: HA-immunoprecipitation, SDS-PAGE and immunoblot (ECL quantification); HEK293T cells transiently co-transfected with HA-NUB1L and FLAG-FAT10; three independent experiments; parent: 4; read off a plot

Row | Variant | response
1 | chain 1 MAPNASCLCVHVRSEEWDLMTFDANPYDSVKKIKEHVRSKTKVPVQDQVLLLGSKILKPRRSLDSYGIDKEKTIHLTLKVVKPSDEELPLFLVESGDEAKRHLLQVRRSSSVAQVKAMIETKTGIIPETQIVTCNGKRLEDGKMMADYGIRKGNLLFLACYCIGG [chain 1 S64D] | ~2.6 IP [FAT10] / Load [FAT10], FAT10 D = 1
2 | chain 1 MAPNASCLCVHVRSEEWDLMTFDANPYDSVKKIKEHVRSKTKVPVQDQVLLLGSKILKPRRSLSSYGIDKEKTIHLTLKVVKPSDEELPLFLVESGDEAKRHLLQVRRDSSVAQVKAMIETKTGIIPETQIVTCNGKRLEDGKMMADYGIRKGNLLFLACYCIGG [chain 1 S109D] | ~3 IP [FAT10] / Load [FAT10], FAT10 D = 1
3 | chain 1 MAPNASCLCVHVRSEEWDLMTFDANPYDSVKKIKEHVRSKTKVPVQDQVLLLGSKILKPRRDLSSYGIDKEKTIHLTLKVVKPSDEELPLFLVESGDEAKRHLLQVRRSSSVAQVKAMIETKTGIIPETQIVTCNGKRLEDGKMMADYGIRKGNLLFLACYCIGG [chain 1 S62D] | ~3.4 IP [FAT10] / Load [FAT10], FAT10 D = 1
4 | chain 1 MAPNASCLCVHVRSEEWDLMTFDANPYDSVKKIKEHVRSKTKVPVQDQVLLLGSKILKPRRSLSSYGIDKEKTIHLELKVVKPSDEELPLFLVESGDEAKRHLLQVRRSSSVAQVKAMIETKTGIIPETQIVTCNGKRLEDGKMMADYGIRKGNLLFLACYCIGG [chain 1 T77E] | ~0.95 IP [FAT10] / Load [FAT10], FAT10 D = 1
5 | chain 1 MAPNASCLCVHVRSEEWDLMTFDANPYDSVKKIKEHVRSKTKVPVQDQVLLLGSKILKPRRSLSSYGIDKEKTIHLTLKVVKPSDEELPLFLVEDGDEAKRHLLQVRRSSSVAQVKAMIETKTGIIPETQIVTCNGKRLEDGKMMADYGIRKGNLLFLACYCIGG [chain 1 S95D] | ~2.6 IP [FAT10] / Load [FAT10], FAT10 D = 1

Variants of: B1
Test: HA-immunoprecipitation, SDS-PAGE and immunoblot (ECL quantification); HEK293T cells transiently co-transfected with HA-NUB1L and FLAG-FAT10; three independent experiments; parent: 4

Row | Variant | response
6 | chain 1 MAPNASCLCVHVRSEEWDLMTFDANPYDSVKKIKEHVRSKTKVPVQDQVLLLGSKILKPRRDLDSYGIDKEKTIHLELKVVKPSDEELPLFLVEDGDEAKRHLLQVRRDSSVAQVKAMIETKTGIIPETQIVTCNGKRLEDGKMMADYGIRKGNLLFLACYCIGG [chain 1 S62D, chain 1 S64D, chain 1 T77E, chain 1 S95D, chain 1 S109D] | 1 IP [FAT10] / Load [FAT10], FAT10 D = 1

Variants of: B1
Test: HA-immunoprecipitation, SDS-PAGE and immunoblot (ECL quantification); HEK293T cells transiently co-transfected with HA-NUB1L and FLAG-FAT10; three independent experiments; parent: 4.3

Row | Variant | response
7 | chain 1 MAPNASCLCVHVRSEEWDLMTFDANPYDSVKKIKEHVRSKTKVPVQDQVLLLGSKILKPRRDLDSYGIDKEKTIHLELKVVKPSDEELPLFLVEDGDEAKRHLLQVRRDSSVAQVKAMIETKTGIIPETQIVTCNGKRLEDGKMMADYGIRKGNLLFLACYCIGG [chain 1 S62D, chain 1 S64D, chain 1 T77E, chain 1 S95D, chain 1 S109D] | 1 IP [FAT10] / Load [FAT10], FAT10 D = 1

Variants of: B1
Test: HA-immunoprecipitation, SDS-PAGE and immunoblot (ECL quantification); HEK293T cells transiently co-transfected with HA-NUB1L and FLAG-FAT10; three independent experiments; parent: 4.3; read off a plot

Row | Variant | response
8 | chain 1 MAPNASCLCVHVRSEEWDLMTFDANPYDSVKKIKEHVRSKTKVPVQDQVLLLGSKILKPRRSLSSYGIDKEKTIHLELKVVKPSDEELPLFLVESGDEAKRHLLQVRRSSSVAQVKAMIETKTGIIPETQIVTCNGKRLEDGKMMADYGIRKGNLLFLACYCIGG [chain 1 T77E] | ~1.8 IP [FAT10] / Load [FAT10], FAT10 D = 1
9 | chain 1 MAPNASCLCVHVRSEEWDLMTFDANPYDSVKKIKEHVRSKTKVPVQDQVLLLGSKILKPRRDLDSYGIDKEKTIHLELKVVKPSDEELPLFLVESGDEAKRHLLQVRRSSSVAQVKAMIETKTGIIPETQIVTCNGKRLEDGKMMADYGIRKGNLLFLACYCIGG [chain 1 S62D, chain 1 S64D, chain 1 T77E] | ~1.9 IP [FAT10] / Load [FAT10], FAT10 D = 1
10 | chain 1 MAPNASCLCVHVRSEEWDLMTFDANPYDSVKKIKEHVRSKTKVPVQDQVLLLGSKILKPRRDLDSYGIDKEKTIHLTLKVVKPSDEELPLFLVEDGDEAKRHLLQVRRDSSVAQVKAMIETKTGIIPETQIVTCNGKRLEDGKMMADYGIRKGNLLFLACYCIGG [chain 1 S62D, chain 1 S64D, chain 1 S95D, chain 1 S109D] | ~7.7 IP [FAT10] / Load [FAT10], FAT10 D = 1
11 | chain 1 MAPNASCLCVHVRSEEWDLMTFDANPYDSVKKIKEHVRSKTKVPVQDQVLLLGSKILKPRRDLSSYGIDKEKTIHLELKVVKPSDEELPLFLVESGDEAKRHLLQVRRSSSVAQVKAMIETKTGIIPETQIVTCNGKRLEDGKMMADYGIRKGNLLFLACYCIGG [chain 1 S62D, chain 1 T77E] | ~2.8 IP [FAT10] / Load [FAT10], FAT10 D = 1
12 | chain 1 MAPNASCLCVHVRSEEWDLMTFDANPYDSVKKIKEHVRSKTKVPVQDQVLLLGSKILKPRRSLDSYGIDKEKTIHLELKVVKPSDEELPLFLVESGDEAKRHLLQVRRSSSVAQVKAMIETKTGIIPETQIVTCNGKRLEDGKMMADYGIRKGNLLFLACYCIGG [chain 1 S64D, chain 1 T77E] | ~2.5 IP [FAT10] / Load [FAT10], FAT10 D = 1
13 | chain 1 MAPNASCLCVHVRSEEWDLMTFDANPYDSVKKIKEHVRSKTKVPVQDQVLLLGSKILKPRRDLDSYGIDKEKTIHLTLKVVKPSDEELPLFLVESGDEAKRHLLQVRRSSSVAQVKAMIETKTGIIPETQIVTCNGKRLEDGKMMADYGIRKGNLLFLACYCIGG [chain 1 S62D, chain 1 S64D] | ~4.7 IP [FAT10] / Load [FAT10], FAT10 D = 1

— publication PMC11673000 (2024)
